Here are results for 5 molecules from patent US20090325883A1 (LES LABORATOIRES SERVIER, published 2009).

In general, Ki refers to the equilibrium dissociation constant of an inhibitor or competing ligand from its target.

B1: Cerd4 peptide (peptide)
peptide: MATVIHNPLKALGDQFYKEAIEHC
notes: also called peptide a)
B2: Genematch peptide (peptide)
peptide: RLKHSCLLALKRAADLLGQRSSST
notes: also called peptide c)
B3: Mina53 peptide (peptide)
peptide: VATRRLSGFLRTLADRLEGTKELL
notes: also called peptide e)
B4: Kiaa 1578 peptide (peptide)
peptide: VMTQEVGQLLQDMGDDVYQQYRSL
notes: also called peptide b)
B5: Loc 51569 peptide (peptide)
peptide: DMWDTRIAKLRVSADSFVRQQEA
notes: also called peptide d)

The assay deals with T1, Bcl-XL (UniProt Q07817 1-209).
T1 construct: also called anti-apoptotic member Bcl-XL
T1 sequence (Q07817 1-209): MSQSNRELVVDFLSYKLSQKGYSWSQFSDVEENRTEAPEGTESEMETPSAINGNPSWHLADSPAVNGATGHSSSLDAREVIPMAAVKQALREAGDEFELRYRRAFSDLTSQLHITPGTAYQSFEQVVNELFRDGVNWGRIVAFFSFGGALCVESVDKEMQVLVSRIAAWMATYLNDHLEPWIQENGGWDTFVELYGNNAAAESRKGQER
The experiment in a line: fluorescence polarisation competition; 15 nM Bak BH3 carboxyfluorescein, 100 nM Bcl-XL.
The molecule B1 had a Ki of 9 µM. The result for B2 reads 1 µM; that for B3, 20 µM; that for B4, 32 µM. Under B5 stands 8 µM.
